The target in the experiment is human NPR1 full-length protein overexpressed on CHO-K1 cells (human) (UniProt P16066). Put plainly: cell-based or functional assay.
Sequence of human NPR1 full-length protein overexpressed on CHO-K1 cells (human) (P16066 33-1061): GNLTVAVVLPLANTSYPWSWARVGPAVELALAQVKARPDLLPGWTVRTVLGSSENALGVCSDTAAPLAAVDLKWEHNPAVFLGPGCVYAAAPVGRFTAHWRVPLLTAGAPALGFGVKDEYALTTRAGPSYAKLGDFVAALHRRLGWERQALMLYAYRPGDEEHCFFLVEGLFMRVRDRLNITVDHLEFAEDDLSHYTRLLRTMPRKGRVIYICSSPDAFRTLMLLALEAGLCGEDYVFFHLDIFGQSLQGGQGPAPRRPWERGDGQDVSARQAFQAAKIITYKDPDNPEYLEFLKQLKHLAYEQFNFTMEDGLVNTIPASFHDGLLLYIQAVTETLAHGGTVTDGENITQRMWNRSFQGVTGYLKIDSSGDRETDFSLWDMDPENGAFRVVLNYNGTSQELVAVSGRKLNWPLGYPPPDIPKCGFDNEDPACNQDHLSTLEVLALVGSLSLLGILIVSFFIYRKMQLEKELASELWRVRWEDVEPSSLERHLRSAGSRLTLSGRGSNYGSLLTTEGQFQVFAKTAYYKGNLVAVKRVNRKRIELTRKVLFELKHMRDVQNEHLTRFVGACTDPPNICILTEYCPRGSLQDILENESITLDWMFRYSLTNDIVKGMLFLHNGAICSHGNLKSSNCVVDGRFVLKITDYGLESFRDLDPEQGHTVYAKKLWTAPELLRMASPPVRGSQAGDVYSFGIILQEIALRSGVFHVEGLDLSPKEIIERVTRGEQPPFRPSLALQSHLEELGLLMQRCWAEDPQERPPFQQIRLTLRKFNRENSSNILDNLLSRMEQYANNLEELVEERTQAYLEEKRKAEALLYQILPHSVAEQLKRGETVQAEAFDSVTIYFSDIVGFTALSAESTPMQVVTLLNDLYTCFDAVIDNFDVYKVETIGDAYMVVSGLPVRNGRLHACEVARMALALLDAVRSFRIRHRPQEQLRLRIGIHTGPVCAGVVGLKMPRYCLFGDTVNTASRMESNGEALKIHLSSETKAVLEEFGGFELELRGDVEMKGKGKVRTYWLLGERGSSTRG

As for REGN-5381 (antibody), the Ratio (without ANP) of NPR1 antigens remaining on the cell surface after endocytosis to the initial number, 10 min, 20 µg/mL turned out to be 0.56; the Ratio (without ANP) of NPR1 antigens remaining on the cell surface after endocytosis to the initial number, 1 h, 20 µg/mL was determined as 0.46; the Ratio (without ANP) of NPR1 antigens remaining on the cell surface after endocytosis to the initial number, 7 hrs, 20 µg/mL was 0.3; the Ratio (without ANP) of NPR1 antigens remaining on the cell surface after endocytosis to the initial number, 24 hrs, 20 µg/mL came to 0.39. The same substance registered a Sum of signal changes (cGMP production in cells before and after endocytosis treatment) of 1.08.

For the origin of these results see EP4725963A1.
